Reference: patent publication US9290794B2, “Mutant protease biosensors with enhanced detection characteristics” (PROMEGA CORPORATION, priority 2010, dated 2016)
Changes are numbered by the printed parent chain.

Tested on: caspase-3
Experiment: CBS variants transiently transfected in HEK293 cells, kinetic luminescence response to TRAIL treatment
Format: cell-based
Details: for RESPONSE, IMPROVEMENT OVER TL-CP358-DEVD:DD: ratio of INDUCED to BASAL; for BASAL, IMPROVEMENT OVER TL-CP358-DEVD:DD: time (0); for greater RESPONSE compared with TL-CP358-DEVD:DD: live cells (FIGS. 2, 3)
Text: The Caspase-3 BioSensor (CBS) is a thermostable Photuris pennsylvanica luciferase (TL), circularly-permuted (CP) at amino acid 358, with a caspase-3 recognition site, i.e., one containing the caspase-3 recognition site comprising amino acids DEVD, at the junction between the TL fragments. The specific CBS that was used as the starting template is termed TL-CP358-DEVD:DD. The amino acid sequence of this CBS can be represented as: M/TL residues 358-544/SDEVDGSL/TL residues 4-354/V (SEQ ID NO:6). The amino acid positions in the CP TL correlate to those of the non-CP TL sequence (provided in the attached appendix). Upon treatment with caspase-3, CBS is cleaved at the recognition site allowing the two TL fragments to form a more favorable, higher activity, conformation.
The utility of CBS is the differential activity before and after cleavage by caspase-3. The basal activity of CBS is defined as the activity at assay time (O), before caspase-3 has had time to cleave at the recognition site. The induced activity is defined as the activity at some later time (t) after CBS has been cleaved by caspase-3. The response or fold increase in activity, is the ratio of induced to basal activity. Substitutions in TL-CP358-DEVD:DD were generated to develop CBS variants with enhanced responsivity to induction using the error-prone, mutagenic PCR-based system GeneMorph II (Stratagene; Daugherty, PNAS USA 97(5):2029 (2000)), according to manufacturer's instructions.
The resulting library was expressed in E. coli and screened for luciferase activity with and without pre-treatment with recombinant caspase-3 (data not shown). CBS variants having the best signal and response characteristics were then evaluated in HEK293 cells by kinetic assay measuring the response to TNF-α-related apoptosis inducing ligand (TRAIL) treatment (Wiley, S. R. et al., Immunity 3:673 (1995); Niles, A. L. et al., Meth. Mol. Biol. 414:137 (2008)). TRAIL induces apoptosis via activation of the death receptor to form active caspase-8, which in turn activates procaspase 3 to produce caspase-3. The appearance of active caspase-3 should be accompanied by an increase in luminescence as the CBS variants are cleaved and activated. Briefly, HEK293 cells, plated at 15,000 cells/well in a 96-well plate, were transiently transfected using TransIT-LTI (Mires Bio) with plasmid DNAs encoding various CBS variants with amino acid substitutions in TL-CP358-DEVD:DD. The same plasmids also carried a gene for constitutive expression of Renilla luciferase to act as a transfection control. Cells were pretreated with 2 mM luciferin for 2 hrs at 37° C. Cells were treated with 1 μg/mL TRAIL and assayed for 10 hrs at 37° C. Luminescence was monitored continuously over time (Luminometer: Varioskan Flash (Thermo) 1 sec integration time). Cells in replicate wells were lysed, at the time of TRAIL addition, i.e., time (0) and Renilla luciferase activity was measured. All biosensor data was then normalized for transfection efficiency using Renilla luciferase luminescence (Dual-GloAssay System; Promega Corporation).
Table 1 lists the variants of TL-CP358-DEVD:DD, identified by clone name, showing improved response to TRAIL treatment. Improvements listed in Table 1 are normalized to the parental TL-CP358-DEVD:DD CBS. “BASAL” represents the normalized biosensor luminescence at TRAIL addition, i.e., time (0), “INDUCED” represents the normalized biosensor luminescence at roughly 10 hrs after TRAIL addition, and “RESPONSE” represents the fold-induction, i.e., the ratio of INDUCED to BASAL activity.
Additional CBS variants were generated using the oligo-based site-directed mutagenesis kit Quik Change (Stratagene; Kunkel, PNAS USA 82(2):488 (1985)), according to the manufacturer's instructions. […]

B1: 01:A-05: CBS variant of TL-CP358-DEVD:DD, 507TI (SEQ ID NOs:7 and 8) (protein)
chain: MPGSTGKIVPLHAVKVVDPTTGKILGPNEPGELYFKGPMIMKGYYNNEEATKAIIDNDGWLRSGDIAYYDNDGHFYIVDRLKSLIKYKGYQVAPAEIEGILLQHPYIVDAGVTGIPDEAAGELPAAGVVVQTGKYLNEQIVQDYVASQVSIAKWLRGGVKFLDEIPKGSTGKIDRKVLRQMLEKHTNGSDEVDGSLKNILYGPEPFYPLEDGTAGEQMFDALSRYAAIPGCIALTNAHTKENVLYEEFLKLSCRLAESFKKYGLKQNDTIAVCSENSLQFFLPVIASLYLGIIVAPVNDKYIERELIHSLGIVKPRIVFCSKNTFQKVLNVKSKLKSIETIIILDLNEDLGGYQCLNNFISQNSDSNLDVKKFKPYSFNRDDQVASIMFSSGTTGLPKGVMLTHKNIVARFSIAKDPTFGNAINPTSAILTVIPFHHGFGMMTTLGYFTCGFRVVLMHTFEEKLFLQSLQDYKVESTLLVPTLMAFLAKSALVEKYDLSHLKEIASGGAPLSKEIGEMVKKRFKLNFVRQGYGLTETTSAVLITPKGV
RESPONSE, IMPROVEMENT OVER TL-CP358-DEVD:DD (Table 1, fold-induction, normalized to parental): 3.6 fold | BASAL, IMPROVEMENT OVER TL-CP358-DEVD:DD (Table 1, normalized biosensor luminescence at TRAIL addition, HEK293, normalized to parental): 0.2 fold | INDUCED, IMPROVEMENT OVER TL-CP358-DEVD:DD (Table 1, normalized luminescence roughly 10 hrs after 1 μg/mL TRAIL, HEK293, normalized to parental): 0.6 fold | greater RESPONSE compared with TL-CP358-DEVD:DD (after 2 hrs TRAIL treatment): 2 times | greater RESPONSE compared with TL-CP358-DEVD:DD (after 10 hrs TRAIL treatment): about 4.8 times

B2: FC7: 43: CBS variant, 471IT 503SG 507TI (SEQ ID NOs:11 and 12) (protein)
chain: B1 chain with I115T, S147G
RESPONSE, IMPROVEMENT OVER TL-CP358-DEVD:DD (Table 2 combination variants): 6.735 fold | INDUCED, IMPROVEMENT OVER TL-CP358-DEVD:DD (Table 2 combination variants, roughly 10 hrs after TRAIL, HEK293): 0.189 fold | BASAL, IMPROVEMENT OVER TL-CP358-DEVD:DD (Table 2 combination variants, HEK293 as in Example I): 0.028 fold | greater RESPONSE compared with TL-CP358-DEVD:DD (after 10 hrs TRAIL treatment): about 2.2 times
